Measurements published in patent US20100105567A1, “NOVEL CAPTURE AGENTS FOR BINDING A LIGAND” (priority 2005, published 2010).
No end group written: not given here. TAMRA = rhodamine dye label at the N-terminus (mixture of 5- and 6-isomers)

Assays:
Type in all cases: physicochemical
[1] = pH resistance of peptide deposited onto polypropylene; details: maximal retention at low and high pH, minimal around pH 6.5
Procedure: The pH resistance of peptide 2DOS-2 (see above) deposited onto a polypropylene hydrophobic surface was investigated:
Twelve 50 μl aliquots of peptide 2DOS-2 in 10 mM tris-HCl (pH 8.0) in 50% (v/v) aqueous acetonitrile were dried down in the wells of a Costar microtitre plate.
(§1) The peptide samples were allowed to evaporate to dryness in the dark.
The dried peptide samples in the first eleven wells were incubated with 200 μl of 100 mM phosphate buffer for 30 minutes at room temperature according to the scheme shown in Table 7:
All supernatants were pipetted off and the residual surface-bound peptides in all twelve wells were finally resuspended in 50 μl of 10,mM tris-HCl (pH 8.0) in 50% (v/v) aqueous acetonitrile and the microtitre plate was imaged at 200 μm resolution on a Typhoon Trio Plus variable mode imager (Amersham Biosciences) with the green (532 nm) laser and the 580 BP 30 filter at the PMT voltages indicated below and at normal sensitivity. The scan height was set at +3 mm and the sample was pressed during scanning.
(§2) The fluorescence images were analysed using ImageQuant TL v2003.03 (Amersham Biosciences).
Quantification data for peptide 2DOS-2 retention (using data from the 300V scan) are given in Table 8 and graphically in FIG. 16: […]

[2] = Time-dependent persistence of peptide on polypropylene in aqueous buffer; details: 1 M NaCl/10 mM tris-HCl (pH 8.0)
Procedure: The time-dependent persistence of peptide 2DOS-2 (see above) deposited onto a polypropylene hydrophobic surface in the presence of aqueous buffer was investigated as shown below:
Twelve 100 μl aliquots of 5 μM peptide 2DOS-2 in 5 mM tris-HCl (pH 8.0) in 75% (v/v) aqueous acetonitrile were dispensed to the wells of the top row of a Costar microtitre plate.
as §1
The dried peptide samples in wells 1-10 were incubated with 250 μl of 1 M NaCl in 10 mM tris-HCl (pH 8.0) for the time indicated below at room temperature. All supernatants were pipetted up and down 8 times after incubation and the supernatants were then removed and placed in the wells of the bottom row of the microtitre plate. […]
as §2
Fluorescence data for the time-dependent persistence of peptide 2DOS-2 deposited onto a polypropylene hydrophobic surface in the presence of aqueous buffer are shown in FIG. 17: […]

[3] = Retention of arrayed peptides on a polypropylene sheet after successive washes; details: for Corrected signal: slide background subtracted
Procedure: Further experiments were undertaken to investigate the retention of peptides P1-1 to P1-5 and P2-1 to P2-2, shown in Table 3, on a polypropylene surface.
The polypropylene sheet was wiped with 50% (v/v) aqueous acetonitrile prior to use.
8×replicate 20 nl volumes of 1 μM peptides P1-1 to P1-5 and P2-1 to P2-2 and TAMRA in dimethyl sulphoxide (DMSO) were dispensed at 1 mm spacing to a 3″×1″×1 mm polypropylene sheet using the Piezorray system (PerkinElmer LAS). 500 drops were pre-dispensed using the ‘side shoot’ option and the tuning was set to 72V for 30 μs.
The slide was imaged at 10 μm resolution on a Typhoon Trio Plus variable mode imager (Amersham Biosciences) with the green (532 nm) laser and the 580 BP 30 filter at a PMT voltage of 600 V and at normal sensitivity. The scan height was set at the platen and the samples were pressed during scanning. The fluorescence image was analysed using ImageQuant TL v2003.03 (Amersham Biosciences).
The lower half of the slide (containing the test array) was then washed in 100 ml of 1 M NaCl containing 10 mM tris-HCl (pH 8.0) for one minute and were re-scanned as described above.
The same half of the slide was then washed for a second time in 100 ml of 1 M NaCl containing 10 mM tris-HCl (pH 8.0) for 30 minutes and re-scanned as described above.
The same half of the slide was then washed for a third time in 100 ml of water for 30 minutes and re-scanned as described above.

[4] = Control array (not washed), scan after first wash
[5] = Control array (not washed), scan after second wash
[6] = Control array (not washed), scan after third wash
[7] = Test array, after first wash (1 M NaCl, 10 mM tris-HCl pH 8.0, one minute)
[8] = Test array, after second wash (1 M NaCl, 10 mM tris-HCl pH 8.0, 30 minutes)
[9] = Test array, after third wash (water, 30 minutes)

| Substance | retention on a polypropylene surface versus pH (in words) [1] | retention on a hydrophobic polypropylene surface over time (in words) [2] | Average fluorescence [3, 4] | Corrected signal [3, 4] | Average fluorescence [3, 5] | Corrected signal [3, 5] | Average fluorescence [3, 6] | Corrected signal [3, 6] | Average fluorescence [3, 7] | Corrected signal ([3]; Test array, after first wash) | Average fluorescence [3, 8] | Corrected signal ([3]; Test array, after second wash) | Average fluorescence [3, 9] | Corrected signal ([3]; Test array, after third wash) | retention on polypropylene sheet (in words) ([3]; compared among P1-1 to P1-5, chain length of 19 amino acids) |
| --- | --- | --- | --- | --- | --- | --- | --- | --- | --- | --- | --- | --- | --- | --- | --- |
| N-TAMRA-Phe-Asp-Phe-Ala-Phe-Ser-Phe-Lys-Phe-C ({TAMRA}-FDFAFSFKF; not fully specified (C-terminus)) [Peptide 2DOS-2] | stable over a broad range of pH values | stable for extended periods of time |  |  |  |  |  |  |  |  |  |  |  |  |  |
| TAMRA-F-G-F-G-F-G-F-G-F-G-F-S-F-A-F-D-F-G-F ({TAMRA}-FGFGFGFGFGFSFAFDFGF) [Peptide P1-5] |  |  | 199,347,483 | 52,655,810 | 190,847,825 | 53,567,975 | 183,492,293 | 49,585,053 | 201,991,732 | 47,493,774 | 167,865,473 | 35,418,169 | 147,812,043 | 23,514,817 | highest retention |
| TAMRA-F-G-F-G-F-G-F-G-F-S-F-A-F-D-F-G-F ({TAMRA}-FGFGFGFGFSFAFDFGF) [Peptide P1-4] |  |  | 187,287,630 | 40,595,958 | 179,942,418 | 42,662,569 | 176,102,487 | 42,195,247 | 189,823,310 | 35,325,352 | 159,100,527 | 26,653,223 | 135,681,173 | 11,383,947 |  |
| TAMRA-F-G-F-G-F-G-F-S-F-A-F-D-F-G-F ({TAMRA}-FGFGFGFSFAFDFGF) [Peptide P1-3] |  |  | 192,743,469 | 46,051,796 | 187,310,655 | 50,030,806 | 184,219,147 | 50,311,907 | 171,197,973 | 16,700,014 | 148,725,456 | 16,278,152 | 125,717,642 | 1,420,417 |  |
| TAMRA-F-G-F-G-F-S-F-A-F-D-F-G-F ({TAMRA}-FGFGFSFAFDFGF) [Peptide P1-2] |  |  | 200,280,129 | 53,588,457 | 196,080,891 | 58,801,042 | 185,727,868 | 51,820,628 | 170,078,218 | 15,580,260 | 135,695,639 | 3,248,336 | 126,193,156 | 1,895,931 |  |
| TAMRA-F-G-F-S-F-A-F-D-F-G-F ({TAMRA}-FGFSFAFDFGF) [Peptide P1-1] |  |  | 244,263,013 | 97,571,341 | 225,863,933 | 88,584,083 | 218,342,010 | 84,434,769 | 157,624,537 | 3,126,578 | 127,216,792 | −5,230,512 | 124,941,941 | 644,716 |  |
